Measured values: the Human Domainome abundance scans (Beltran et al. 2025)

B1: Homeobox protein cut-like 1, residues 548 to 629; numbered along this chain, P39880 (parent)
chain: GEEMDTAEIARQVKEQLIKHNIGQRIFGHYVLGLSQGSVSEILARPKPWNKLTVRGKEPFHKMKQFLSDEQNILALRSIQGR

Variants of: B1
Assay: abundance fitness (aPCA) (normalised: wild type 0, dead -1); higher = more abundant; growth selection in yeast, the domain comes from the species named
Details: Homo sapiens

Abundance fitness of substitutions, site by site:
V54: P 0.036, Q 0.064, R -0.028, S -0.033, T 0.03, W -0.173, Y -0.033
R55: A 0.075, C -0.051, D 0.027, E 0.135, F -0.041, G -0.011, H 0.077, I -0.148, K 0.066, L -0.04, M -0.028, N -0.142, P -0.159, Q 0.067, S 0.004, T 0.007, V -0.06, W -0.095, Y -0.096
G56: C -0.279, D 0.036, E 0.085, F -0.224, H -0.352, I -0.282, K -0.595, L -0.098, M -0.143, N -0.22, P -0.697, Q 0.077, R -0.711, S -0.254, T -0.333, V -0.343, W -0.265, Y -0.313
K57: A -0.2, C -0.393, E -0.476, F -0.742, G -0.525, H -0.426, I -0.284, L -0.288, M -0.152, N -0.601, P -0.663, Q 0.057, R 0.013, S -0.334, T -0.408, V -0.455, W -0.526, Y -0.528
E58: A -0.168, C -0.441, D -0.105, F -0.416, G -0.35, H -0.618, I -0.234, K -0.23, L -0.121, M -0.132, N -0.27, P -0.819, Q -0.047, R -0.273, S -0.252, T -0.255, V -0.062, W -0.227, Y -0.166
P59: A 0.091, C 0.1, D 0.047, E 0.101, F 0.052, G -0.024, H 0.025, I 0.099, K -0.034, L 0.133, M 0.078, N 0.113, Q 0.078, R 0.023, S 0.076, T 0.088, W 0.077, Y 0.025
F60: A -0.944, C -0.762, D -0.803, E -0.799, G -0.952, I -0.306, M -0.536, P -0.897, Q -0.761, R -1.01, S -0.869, T -0.835, V -0.911, W 0.035, Y 0.019
H61: A -0.07, C -0.134, E 0.021, F 0.069, G -0.342, I 0.075, K 0.013, L 0.071, N -0.11, Q 0.04, R 0.014, S -0.137, V 0.009, W -0.03, Y 0.067
K62: A -0.201, C -0.413, E -0.506, F -0.603, G -0.729, I -0.16, L -0.12, M -0.231, N -0.532, P -0.989, R -0.126, S -0.443, T -0.305, V -0.307, W -0.749, Y -0.522
M63: A -0.677, D -0.949, E -0.872, F -0.753, G -1.04, H -1.13, I -0.31, K -0.992, L -0.423, N -1.16, P -0.797, R -1, T -0.777, V -0.886, W -1.02, Y -0.94
K64: A -0.028, C -0.273, D -0.489, E -0.167, F -0.15, G -0.43, H -0.216, L -0.064, M -0.061, N -0.225, P -0.917, Q 0.033, R -0.049, S -0.154, T -0.287, V -0.023, W -0.24, Y -0.112
Q65: A -0.02, C -0.172, E 0.053, F -0.446, G -0.232, I -0.096, K -0.076, L -0.082, M -0.056, N 0.022, P -0.933, R -0.039, S -0.059, T -0.029, V -0.117, W -0.201, Y -0.169
F66: A -0.758, C -0.963, E -0.887, G -0.934, H -0.966, I -0.573, K -0.829, L -0.662, M -0.648, N -0.781, P -0.77, Q -0.791, R -1.04, S -0.829, W 0.116, Y -0.924
L67: A -0.736, C -0.498, D -0.876, F -0.341, G -0.848, H -1.21, I -0.303, K -0.918, M -0.284, N -0.582, Q -0.978, R -0.979, S -1.01, V -0.243, W -0.817, Y -0.609
S68: A -0.041, C -0.133, D -0.02, E 0.013, F -0.187, H -0.292, I -0.198, K -0.023, L -0.088, M -0.083, P -0.656, Q -0.049, R -0.157, T -0.122, V -0.304, W -0.4, Y -0.297
D69: A -0.174, E -0.134, F -0.252, G -0.267, H -0.182, I -0.425, K -0.108, L -0.318, M -0.231, N -0.015, P -0.75, R -0.207, T -0.181, V -0.308, W -0.387, Y -0.351
E70: A -0.026, C -0.118, D -0.043, F -0.213, G -0.126, H 0.001, I -0.187, L -0.307, M -0.139, N -0.084, P 0.026, Q -0.047, R -0.055, S -0.083, T -0.121, V -0.154, W -0.217, Y -0.152
Q71: C -0.11, D -0.035, E 0.06, F -0.204, G -0.037, H -0.16, I -0.212, M -0.137, N -0.099, P -0.673, R -0.049, S 0.047, T -0.011, V -0.2, W -0.293, Y -0.257
N72: A 0.049, C -0.098, D -0.221, F -0.143, G -0.04, H -0.063, I -0.289, K -0.007, L -0.251, M -0.132, P -0.432, Q 0.03, R -0.137, T -0.115, V -0.315, W -0.131, Y -0.099
I73: A -0.019, C -0.129, D -0.745, E -0.637, F -0.026, G -0.44, H -0.5, L -0.064, M -0.064, N -0.51, P -0.303, Q -0.336, R -0.56, S 0.005, T -0.163, V 0.038, W 0.05, Y -0.627
L74: A -0.039, C -0.162, D -0.019, E 0.008
